Measured values published in patent publication US7838231 (REGENTS OF THE UNIVERSITY OF MICHIGAN, dated 2010).

Legend:
[1] = molecular target: T1, BBS2, human full length, yeast two-hybrid prey (human, UniProt Q9BXC9 1-721); test: direct yeast two-hybrid assay
T1 sequence (looked up): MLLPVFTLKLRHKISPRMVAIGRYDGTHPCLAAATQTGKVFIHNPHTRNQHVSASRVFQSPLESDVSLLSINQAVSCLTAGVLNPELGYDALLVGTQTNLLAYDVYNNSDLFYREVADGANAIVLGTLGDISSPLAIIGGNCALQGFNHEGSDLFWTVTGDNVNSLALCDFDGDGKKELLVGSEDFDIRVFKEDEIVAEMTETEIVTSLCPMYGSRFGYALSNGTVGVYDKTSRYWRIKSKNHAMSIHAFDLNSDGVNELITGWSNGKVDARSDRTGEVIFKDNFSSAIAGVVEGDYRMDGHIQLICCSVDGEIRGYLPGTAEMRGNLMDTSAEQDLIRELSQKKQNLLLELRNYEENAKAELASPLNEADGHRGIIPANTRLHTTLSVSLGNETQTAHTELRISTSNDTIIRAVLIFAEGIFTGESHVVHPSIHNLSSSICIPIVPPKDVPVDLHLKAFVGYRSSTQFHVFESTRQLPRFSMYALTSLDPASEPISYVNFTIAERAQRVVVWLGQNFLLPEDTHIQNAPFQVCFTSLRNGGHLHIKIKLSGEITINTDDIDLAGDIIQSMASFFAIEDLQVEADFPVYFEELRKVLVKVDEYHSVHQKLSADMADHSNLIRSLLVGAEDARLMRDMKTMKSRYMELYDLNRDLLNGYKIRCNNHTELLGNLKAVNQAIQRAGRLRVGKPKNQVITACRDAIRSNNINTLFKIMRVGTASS

[2] = molecular target: T2, NPHP1, human full length, yeast two-hybrid prey (human, UniProt O15259 1-732); test: direct yeast two-hybrid assay
T2 construct: also called nephrocystin 1
T2 sequence (looked up): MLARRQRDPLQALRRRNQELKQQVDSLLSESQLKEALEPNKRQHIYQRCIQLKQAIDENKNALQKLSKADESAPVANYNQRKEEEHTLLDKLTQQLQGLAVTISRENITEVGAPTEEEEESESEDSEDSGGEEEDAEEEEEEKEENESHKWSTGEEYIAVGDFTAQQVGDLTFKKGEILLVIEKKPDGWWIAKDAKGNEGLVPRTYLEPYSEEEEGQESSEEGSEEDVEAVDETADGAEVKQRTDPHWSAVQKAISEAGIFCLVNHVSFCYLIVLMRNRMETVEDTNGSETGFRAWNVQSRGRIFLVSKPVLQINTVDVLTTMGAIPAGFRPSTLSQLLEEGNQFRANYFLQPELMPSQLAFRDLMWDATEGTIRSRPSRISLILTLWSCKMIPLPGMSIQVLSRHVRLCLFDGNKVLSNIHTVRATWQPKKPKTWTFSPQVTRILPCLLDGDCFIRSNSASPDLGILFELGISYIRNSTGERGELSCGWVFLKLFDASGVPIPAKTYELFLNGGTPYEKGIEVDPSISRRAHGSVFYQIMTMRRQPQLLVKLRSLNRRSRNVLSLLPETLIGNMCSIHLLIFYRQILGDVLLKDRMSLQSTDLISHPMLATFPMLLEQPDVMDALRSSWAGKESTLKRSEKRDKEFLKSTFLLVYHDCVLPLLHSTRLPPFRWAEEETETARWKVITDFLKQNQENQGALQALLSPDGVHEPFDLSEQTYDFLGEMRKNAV

[3] = molecular target: T3, BBS7, human full length, yeast two-hybrid prey (human, UniProt Q8IWZ6 1-715); test: direct yeast two-hybrid assay
T3 sequence (looked up): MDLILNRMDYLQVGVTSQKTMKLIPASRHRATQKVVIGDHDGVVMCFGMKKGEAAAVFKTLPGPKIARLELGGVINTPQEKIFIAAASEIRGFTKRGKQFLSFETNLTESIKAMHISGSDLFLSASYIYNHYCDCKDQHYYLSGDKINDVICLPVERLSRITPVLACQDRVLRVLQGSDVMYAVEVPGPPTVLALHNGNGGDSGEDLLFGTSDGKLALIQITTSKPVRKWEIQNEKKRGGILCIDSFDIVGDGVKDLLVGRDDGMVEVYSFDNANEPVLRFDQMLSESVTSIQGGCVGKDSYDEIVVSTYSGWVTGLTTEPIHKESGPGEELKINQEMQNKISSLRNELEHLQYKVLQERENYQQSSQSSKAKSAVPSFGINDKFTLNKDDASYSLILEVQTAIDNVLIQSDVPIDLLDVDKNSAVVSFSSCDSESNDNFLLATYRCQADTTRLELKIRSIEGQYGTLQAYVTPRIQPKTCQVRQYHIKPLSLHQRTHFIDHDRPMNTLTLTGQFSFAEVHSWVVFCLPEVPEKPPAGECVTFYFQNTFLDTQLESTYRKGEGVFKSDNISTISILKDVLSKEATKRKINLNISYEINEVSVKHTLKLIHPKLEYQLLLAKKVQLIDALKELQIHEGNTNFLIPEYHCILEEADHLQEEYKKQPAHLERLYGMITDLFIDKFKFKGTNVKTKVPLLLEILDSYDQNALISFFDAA

[4] = molecular target: calmodulin (CALM2), human full length, yeast two-hybrid fusion (human, UniProt P0DP24 1-149); test: yeast two-hybrid screen of a human fetal brain expression library, NPHP5 as bait

B1: full-length human nephrocystin-5 (NPHP5), yeast two-hybrid fusion (other, not shown: small tags and cut ends)
chain: MKPTGTDPRILSIAAEVAKSPEQNVPVILLKLKEIINITPLGSSELKKIKQDIYCYDLIQYCLLVLSQDYSRIQGGWTTISQLTQILSHCCVGLEPGEDAEEFYNELLPSAAENFLVLGRQLQTCFINAAKAEEKDELLHFFQIVTDSLFWLLGGHVELIQNVLQSDHFLHLLQADNVQIGSAVMMMLQNILQINSGDLLRIGRKALYSILDEVIFKLFSTPSPVIRSTATKLLLLMAESHQEILILLRQSTCYKGLRRLLSKQETGTEFSQELRQLVGLLSPMVYQEVEEQKLHQAACLIQAYWKGFQTRKRLKKLPSAVIALQRSFRSKRSKMLLEINRQKEEEDLKLQLQLQRQRAMRLSRELQLSMLEIVHPGQVEKHYREMEEKSALNIQKHWRGYRERKNFHQQRQSLIEYKAAVTLQRAALKFLAKCRKKKKLFAPWRGLQELTDARRVELKKRVDDYVRRHLGSPMSDVVSRELHAQAQERLQHYFMGRALEERAQQHREALIAQISTNVEQLMKAPSLKEAEGKEPELFLSRSRPVAAKAKQAHLTTLKHIQAPWWKKLGEESGDEIDVPKDELSIELENLFIGGTKPP
notes: Full-length NPHP5 cDNA (598 amino acid residues) fused to a GAL4 domain; also called KIAA0036
binding result [1]: no binding
binding result [2]: no binding
binding result [3]: no binding
binding result [4]: binds
